In patent publication US20050036993A1, “Immune activation by double-stranded polynucleotides” (priority 1998, published 2005):

Legend:
[1] = tested on: Stat 1 (Tyr 701), Stat 3 (Tyr 705); test: Western blot of phosphorylated Stat 1, Stat 3 and total Stat 1 in FRTL-5 cells; assay type: cell-based, rat
Procedure: SDS-polyacrylamide gel electrophoresis and Western blotting—Transfected FRTL-5 cells or FRTL-5 cells treated with KIFN (100 U/ml protein) which had been grown in 100 mm dishes (Nalge Nunc International), were placed on ice before harvesting, washed with ice-cold Dulbecco's PBS (DPBS), released by gentle scraping with a rubber policeman, and collected by low-speed centrifugation at 833×g for 10 min in a Sorvall table-top centrifuge (rotor H-1000, Dupont Company, Wilmington Del.). After a second washing in DPBS, cells were resuspended in cold lysis buffer [50 mM HEPES pH 7.0,2 mM MgCl2; 250 mM NaCl; 0.1 mM EDTA; 0.1 mM EGTA; 1 mM DTT; 2 mM Na3VO4; 10 mM Na4P2O7; 10 mM NaF; 0.1% NP-40; 0.5 mM p-amidinophenyl methanesulfonyl fluoride hydrochloride (p-APMSF) plus a protease inhibitor cocktail ([…]; 2.5 mg/ml of antipain; 2.5 mg/ml of chymostatin; 0.25 mg/ml leupeptin; 0.25 mg/ml antipain]. The cells were allowed to lyse on ice for 60 min, after which they were vortexed vigorously and centrifuged at 4° C. and at 12,000 rpm in a microcentrifuge for 10 min. The supernatant was collected and frozen in aliquots at −70° C. […] The membrane was again washed and protein detected by incubation for 1 min with ECL detection reagent (Amersham, Arlington Heights, Ill.) followed by exposure to X-ray film. […]

[2] = tested on: rat 90K tumor-associated immunostimulator; test: Northern analysis of 90K tumor-associated immunostimulator RNA in FRTL-5 cells; assay type: cell-based; details: 5 Tg nucleic acid or 100 U/ml KIFN, Northern after 48 hours
Text: 12: 19-33 (1998)). Filters were sequentially hybridized with the rat 90K, MHC Class I, MHC Class II, and GAPDH probes. […] The glyceraldehyde phosphate dehydrogenase (GAPDH) probe was cut from a pTRI-GAPDH-Rat template (Ambion, Tex.).

[3] = tested on: MHC Class I, MHC Class II; test: Northern analysis of MHC Class I and Class II RNA after infection or transfection of FRTL-5 cells; details: 5 Tg nucleic acid transfected (Lipofectamine Plus), HSV-2 infection or KIFN, Northern 48 hours after treatment

B1: KIFN: K-interferon (gamma interferon, character lost), rat recombinant, 100 U/ml (protein, UniProt P01581 23-156, looked up)
Interferon gamma: QGTLIESLESLKNYFNSSSMDAMEGKSLLLDIWRNWQKDGNTKILESQIISFYLRLFEVLKDNQAISNNISVIESHLITNFFSNSKAKKDAFMSIAKFEVNNPQIQHKAVNELIRVIHQLSPESSLRKRKRSRC
phosphorylation of STAT 1 and STAT 3 ([1]; FRTL-5 cells, dsDNA within 6 hours of transfection): significantly lower and more delayed in time
total STAT 1 protein ([1]; readily measurable at 12 hours): greater and more advanced in time
90K RNA levels [2]: weaker
MHC RNA levels / MHC expression (Class I and Class II) [3]: increases Class II more than Class I levels
